Test results: patent US20240117019A1 (UNIVERSITY OF GEORGIA RESEARCH FOUNDATION, published 2024)

What was measured:
[1] = target: T1, MBP-PspA fragment 1-512 fusion protein (Streptococcus pneumoniae strain TCH8431 …, UniProt P0AEX9 27-392 = MBP); test: ELISA on coated MBP-PspA fragment, OD405
T1 construct: not shown: C-terminal His-tag encoded by the reverse primer PspA512-R

[2] = target: T2, MBP-PspA fragment 1-438 fusion protein (Streptococcus pneumoniae strain TCH8431 …, UniProt P0AEX9 27-392 = MBP); test: ELISA on coated MBP-PspA fragment, OD405
T2 construct: not shown: C-terminal His-tag encoded by the reverse primer PspA438-R

[3] = target: T3, recombinant His-tagged full-length pneumococcal surface protein A (PspA) from strain TCH8431 (serotype 19A) (Streptococcus pneumoniae strain TCH8431 …); test: ELISA on coated recombinant PspA, non-linear regression fit
T3 construct: range 1-725; also called recombinant PspA

[4] = target: T4, PspA protein of pneumococcal strain TCH8431 (serotype 19A), native, in lysates or on whole bacteria (Streptococcus pneumoniae strain TCH8431 …); test: ELISA on plates coated with fixed whole bacteria, TCH8431 (19A), OD405
T4 construct: whole, on cells; also called PspA protein from strain TCH8431

B1: human monoclonal antibody PspA16 (antibody, V domains shown)
VH: QVQLVQSGPDVKKPGASVKVSCKTSGYTFTGYYMHWVRQAPGQGLEWMGWVNPNTGGTSYAQKFQGRVTVTRDTSISTVYMELSALGSDDTAIYFCARAWAPGAEYLHHWGQGTLVTVSS
VL: EIVMTQSPGTLSLSPGETATLSCRASQSVGSSYLAWYQQKPGQAPRLLIFGASNRATGIPVRFSASGSGTDFTLTISRLEPEDFAVYYCQQHDHSPFTFGPGTKVDLK
notes: also called mAb PspA16
With B1 the “EC50 (read off the curve)” value [1] was about 0.04 µg/mL, the “EC50 (read off the curve)” value [2] was about 0.04 µg/mL and the EC50 [3] was 0.026 µg/mL. The “EC50 (read off the curve)” value [4] was about 0.08 µg/mL.
